Source: patent US20250361274A1, “PEPTIDE AND PEPTIDE-CONTAINING AGENT” (PEPTIDREAM INC., priority 2022, published 2025)
Numbered stars: 1 amine (or outer) side, 2 acyl side, 3 side chain; on linkers, the order of the positions; unused ones are H or OH. Bridge positions count the residues as written; N and C are the ends. Square brackets hold non-standard residues; d marks the D form. Ends that are not written are not given here. KCOpipzaa = N6-(4-(carboxymethyl)piperazine-1-carbonyl)-L-lysine, O=C(NCCCC[C@H](N[*:1])C(=O)[*:2])N1CCN(CC(=O)[*:3])CC1; Phe(4-guanidino) = N=C(N)Nc1ccc(C[C@H](N)C(=O)O)cc1; 3Pal(6-Ph) = N[C@@H](Cc1ccc(-c2ccccc2)nc1)C(=O)O; Phe(4-COOH) = N[C@@H](Cc1ccc(C(=O)O)cc1)C(=O)O; Bip = N[C@@H](Cc1ccc(-c2ccccc2)cc1)C(=O)O; 3Pal(6-NH2) = Nc1ccc(C[C@H](N)C(=O)O)cn1; Phe(4-F) = N[C@@H](Cc1ccc(F)cc1)C(=O)O; Ala(4-THP) = N[C@@H](CC1CCOCC1)C(=O)O; hTyr = N[C@@H](CCc1ccc(O)cc1)C(=O)O; hCit = NC(=O)NCCCC[C@H](N)C(=O)O; 4Pal = N[C@@H](Cc1ccncc1)C(=O)O

Experiments:
BMP4 = biological target: T1, BMP4 (Homo sapiens, UniProt P12644); assay: BMP4 signal transduction inhibitory activity: SMAD1 phosphorylation by BMP4 stimulus, AlphaLISA SureFire, A549 cells; type: cell-based; details: for aLISA BMP4: inhibition of SMAD1 phosphorylation by BMP4 stimulus, A549 cells, peptides of Synthesis 1, classes D-F, ND; for aLIZA BMP4 (0.2 nM) % Inh: SMAD1 phosphorylation by BMP4 stimulus, peptide conc. in assay 0.02, 0.2, 2 nM, class symbols
T1 sequence (P12644 293-408): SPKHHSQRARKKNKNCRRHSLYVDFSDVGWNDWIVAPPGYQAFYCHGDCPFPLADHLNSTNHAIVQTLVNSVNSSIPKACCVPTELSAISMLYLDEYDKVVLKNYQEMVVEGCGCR

BMP7 = biological target: T2, BMP7 (Homo sapiens, UniProt P18075); assay: BMP7 signal transduction inhibitory activity: SMAD1 phosphorylation by BMP7 stimulus, A549 cells; type: cell-based; details: for aLISA BMP7: inhibition of SMAD1 phosphorylation by BMP7 stimulus, A549 cells, peptides of Synthesis 1, classes E, F, ND; for aLIZA BMP7 (10 nM) % Inh: SMAD1 phosphorylation by BMP7 stimulus, peptide conc. in assay 10, 100, 1000 nM, class symbols
T2 sequence (P18075 293-431): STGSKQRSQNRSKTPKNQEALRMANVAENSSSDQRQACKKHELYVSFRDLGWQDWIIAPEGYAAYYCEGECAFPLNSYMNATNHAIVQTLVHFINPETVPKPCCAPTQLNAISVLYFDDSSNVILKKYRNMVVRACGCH
Summary of the method: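 A549 cells were stimulated with 10 nM BMP7, and peptide inhibition of signalling was measured as SMAD1 phosphorylation. Peptides were tested at three concentrations, in sets ranging from 1–100 nM to 100–1,000 nM, or as eight-point 1/3 dilution series starting at 100 nM or 1,000 nM.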

| Substance | aLISA BMP4 (BMP4) | aLISA BMP7 (BMP7) | aLIZA BMP4 (0.2 nM) % Inh (BMP4) | aLIZA BMP7 (10 nM) % Inh (BMP7) |
| --- | --- | --- | --- | --- |
| 134 ({CH2CO}-ERVYVD[Phe(4-guanidino)][Bip]PYV[Bip]Y[Phe(4-COOH)][Phe(4-COOH)]SCG-NH2; thioether N-17; not fully specified) [compound 134] | E (showed less than 50% of inhibitory activity in 0.2 nM-addition zone and showed 50% or more of inhibitory activity in 2 nM-addition zone) | E (showed 50% or more of inhibitory activity in a zone to which the peptide was added in an amount of 10 nM) | – | – |
| 135 ({CH2CO}-ERVYVD[hCit][Bip]PYV[Bip]Y[Phe(4-COOH)][Phe(4-COOH)]SCG-NH2; thioether N-17; not fully specified) [compound 135] | E (showed less than 50% of inhibitory activity in 0.2 nM-addition zone and showed 50% or more of inhibitory activity in 2 nM-addition zone) | E (showed 50% or more of inhibitory activity in a zone to which the peptide was added in an amount of 10 nM) | – | – |
| 137 ({CH2CO}-ERVYVDR[Bip][hCit]YV[Bip]Y[Phe(4-COOH)][Phe(4-COOH)]SCG-NH2; thioether N-17; not fully specified) [compound 137] | D (showed 50% or more of inhibitory activity in 0.2 nM-addition zone) | E (showed 50% or more of inhibitory activity in a zone to which the peptide was added in an amount of 10 nM) | – | – |
| 143 ({CH2CO}-ERVYVDR[Bip]PYY[Bip]Y[Phe(4-COOH)][Phe(4-COOH)]SCG-NH2; thioether N-17; not fully specified) [compound 143] | D (showed 50% or more of inhibitory activity in 0.2 nM-addition zone) | E (showed 50% or more of inhibitory activity in a zone to which the peptide was added in an amount of 10 nM) | – | – |
| 145 ({CH2CO}-ERVYVDR[Bip]PY[hCit][Bip]Y[Phe(4-COOH)][Phe(4-COOH)]SCG-NH2; thioether N-17; not fully specified) [compound 145] | D (showed 50% or more of inhibitory activity in 0.2 nM-addition zone) | E (showed 50% or more of inhibitory activity in a zone to which the peptide was added in an amount of 10 nM) | – | – |
| 146 ({CH2CO}-ERVYVDR[Bip]PY[Ala(4-THP)][Bip]Y[Phe(4-COOH)][Phe(4-COOH)]SCG-NH2; thioether N-17; not fully specified) [compound 146] | D (showed 50% or more of inhibitory activity in 0.2 nM-addition zone) | E (showed 50% or more of inhibitory activity in a zone to which the peptide was added in an amount of 10 nM) | – | – |
| 150 ({CH2CO}-ERVYVDR[Bip]PYV[Bip]Y[Phe(4-COOH)][3Pal(6-NH2)]SCG-NH2; thioether N-17; not fully specified) [compound 150] | E (showed less than 50% of inhibitory activity in 0.2 nM-addition zone and showed 50% or more of inhibitory activity in 2 nM-addition zone) | E (showed 50% or more of inhibitory activity in a zone to which the peptide was added in an amount of 10 nM) | – | – |
| 243 (ERVYVDR[3Pal(6-Ph)]SYV[Bip]Y[Phe(4-COOH)][Phe(4-COOH)]SCG-NH2) [compound 243] | – | – | C (showed less than 30% of inhibitory activity in 0.2 nM-addition zone and showed 30% or more of inhibitory activity in 2 nM-addition zone) | E (showed less than 30% of inhibitory activity in 100 nM-addition zone and showed 30% or more of inhibitory activity in 1,000 nM-addition zone) |
| 244 (ARVYVDR[3Pal(6-Ph)]SYV[Bip]Y[Phe(4-COOH)][Phe(4-COOH)]SCG-NH2; not fully specified) [compound 244] | – | – | C (showed less than 30% of inhibitory activity in 0.2 nM-addition zone and showed 30% or more of inhibitory activity in 2 nM-addition zone) | ND (the inhibitory activity was less than 30% at the maximum concentration evaluated) |
| 245 (LRVYVDR[3Pal(6-Ph)]SYV[Bip]Y[Phe(4-COOH)][Phe(4-COOH)]SCG) [compound 245] | – | – | C (showed less than 30% of inhibitory activity in 0.2 nM-addition zone and showed 30% or more of inhibitory activity in 2 nM-addition zone) | ND (the inhibitory activity was less than 30% at the maximum concentration evaluated) |
| 246 (ERV[4Pal]VDR[3Pal(6-Ph)]SYV[Bip]Y[Phe(4-COOH)][Phe(4-COOH)]SCG-NH2; not fully specified) [compound 246] | – | – | C (showed less than 30% of inhibitory activity in 0.2 nM-addition zone and showed 30% or more of inhibitory activity in 2 nM-addition zone) | E (showed less than 30% of inhibitory activity in 100 nM-addition zone and showed 30% or more of inhibitory activity in 1,000 nM-addition zone) |
| 247 (ERV[Phe(4-F)]VDR[3Pal(6-Ph)]SYV[Bip]Y[Phe(4-COOH)][Phe(4-COOH)]SCG-NH2) [compound 247] | – | – | C (showed less than 30% of inhibitory activity in 0.2 nM-addition zone and showed 30% or more of inhibitory activity in 2 nM-addition zone) | E (showed less than 30% of inhibitory activity in 100 nM-addition zone and showed 30% or more of inhibitory activity in 1,000 nM-addition zone) |
| 248 (E[KCOpipzaa]VYVDR[3Pal(6-Ph)]SYV[Bip]Y[Phe(4-COOH)][Phe(4-COOH)]SCG-NH2) [compound 248] | – | – | C (showed less than 30% of inhibitory activity in 0.2 nM-addition zone and showed 30% or more of inhibitory activity in 2 nM-addition zone) | ND (the inhibitory activity was less than 30% at the maximum concentration evaluated) |
| 249 (ERVHVDR[3Pal(6-Ph)]SYV[Bip]Y[Phe(4-COOH)][Phe(4-COOH)]SCG-NH2; not fully specified) [compound 249] | – | – | C (showed less than 30% of inhibitory activity in 0.2 nM-addition zone and showed 30% or more of inhibitory activity in 2 nM-addition zone) | E (showed less than 30% of inhibitory activity in 100 nM-addition zone and showed 30% or more of inhibitory activity in 1,000 nM-addition zone) |
| 250 (ERVYVDR[3Pal(6-Ph)]HYV[Bip]Y[Phe(4-COOH)][Phe(4-COOH)]SCG-NH2; not fully specified) [compound 250] | – | – | C (showed less than 30% of inhibitory activity in 0.2 nM-addition zone and showed 30% or more of inhibitory activity in 2 nM-addition zone) | E (showed less than 30% of inhibitory activity in 100 nM-addition zone and showed 30% or more of inhibitory activity in 1,000 nM-addition zone) |
| 251 (ERVYVDR[3Pal(6-Ph)]S[hTyr]V[Bip]Y[Phe(4-COOH)][Phe(4-COOH)]SCG-NH2) [compound 251] | – | – | C (showed less than 30% of inhibitory activity in 0.2 nM-addition zone and showed 30% or more of inhibitory activity in 2 nM-addition zone) | ND (the inhibitory activity was less than 30% at the maximum concentration evaluated) |
| 252 (LRVYVDR[3Pal(6-Ph)]SYV[Bip][4Pal][Phe(4-COOH)][Phe(4-COOH)]SCG-NH2; not fully specified) [compound 252] | – | – | C (showed less than 30% of inhibitory activity in 0.2 nM-addition zone and showed 30% or more of inhibitory activity in 2 nM-addition zone) | ND (the inhibitory activity was less than 30% at the maximum concentration evaluated) |
| 253 (ERVYVSR[3Pal(6-Ph)]SYV[Bip][4Pal][Phe(4-COOH)][Phe(4-COOH)]SCG-NH2; not fully specified) [compound 253] | – | – | C (showed less than 30% of inhibitory activity in 0.2 nM-addition zone and showed 30% or more of inhibitory activity in 2 nM-addition zone) | ND (the inhibitory activity was less than 30% at the maximum concentration evaluated) |
| 254 (ERVYVSR[3Pal(6-Ph)]S[hTyr]V[Bip]Y[Phe(4-COOH)][Phe(4-COOH)]SCG-NH2; not fully specified) [compound 254] | – | – | C (showed less than 30% of inhibitory activity in 0.2 nM-addition zone and showed 30% or more of inhibitory activity in 2 nM-addition zone) | ND (the inhibitory activity was less than 30% at the maximum concentration evaluated) |
| 256 (ERV[Phe(4-F)]VSR[3Pal(6-Ph)]SYV[Bip][4Pal][Phe(4-COOH)][Phe(4-COOH)]SCG-NH2; not fully specified) [compound 256] | – | – | C (showed less than 30% of inhibitory activity in 0.2 nM-addition zone and showed 30% or more of inhibitory activity in 2 nM-addition zone) | ND (the inhibitory activity was less than 30% at the maximum concentration evaluated) |
| 257 (TRVYVDR[3Pal(6-Ph)]SYV[Bip]Y[Phe(4-COOH)][Phe(4-COOH)]SCG-NH2; not fully specified) [compound 257] | – | – | C (showed less than 30% of inhibitory activity in 0.2 nM-addition zone and showed 30% or more of inhibitory activity in 2 nM-addition zone) | E (showed less than 30% of inhibitory activity in 100 nM-addition zone and showed 30% or more of inhibitory activity in 1,000 nM-addition zone) |
| 263 (ERVYV[KCOpipzaa]R[3Pal(6-Ph)]SYV[Bip]Y[Phe(4-COOH)][Phe(4-COOH)]SCG-NH2; not fully specified) [compound 263] | – | – | C (showed less than 30% of inhibitory activity in 0.2 nM-addition zone and showed 30% or more of inhibitory activity in 2 nM-addition zone) | E (showed less than 30% of inhibitory activity in 100 nM-addition zone and showed 30% or more of inhibitory activity in 1,000 nM-addition zone) |
